Data as given in publication PMC4652760.

Columns and labels:
[1] = target: Streptomyces coelicolor RNase J (SCO5745) (Streptomyces coelicolor); experiment: crystal structure; crystals from 27.5% w/v PEG 400, 0.1 M Tris-HCl pH 8.5, 18°C; co-purified RNA bound; space group P4(3)22, two protomers in the asymmetric unit; tetramer by crystallographic 2-fold symmetry
[2] = target: Streptomyces coelicolor RNase J (SCO5745) (Streptomyces coelicolor); experiment: AUC; analytical ultracentrifugation, data not shown; conditions not given

Work on “Streptomyces coelicolor RNase J (SCO5745) (enzyme)” yielded a stoichiometry N [1] of 4 and a stoichiometry N [2] of 4.
